Measured values from PMC7402679.
“And” between values parts separate entries of the source, which are not always exact repeats. Identical values can stand only once.

Target: HA-tagged MnPV L1_(SHORT), expressed in Mastomys-derived fibroblasts (Mastomys natalensis papillomavirus (MnPV))
Assay: SDS-PAGE and western blot of high-MW (multimer) bands; lysates of transfected MaFi132 cells in 1.25x Laemmli buffer (2.5% SDS, 2.5% beta-mercaptoethanol), 95 C 5 min; 8% SDS-PAGE; detected with mAb 2D11, Mastomys serum mix and anti-HA

For “HA-tagged MnPV L1_(SHORT), expressed in Mastomys-derived fibroblasts (natural protein)”, the stoichiometry N was 2 and 3.
